Columns and labels:
human D-dimer (human) = human D-dimer (human) (UniProt P02671); experiment: competitive inhibition ELISA: HRP-B4 pre-incubated with soluble antigen, then added to a D-dimer-coated plate
D monomer = D monomer (UniProt P02671); experiment: as above

Substance: monoclonal antibody B4
- Kd (human D-dimer (human)): 980 pM
- reactivity (D monomer): 5 µM

— US20190011465A1
